Reference: US20250026849A1 (ARCELLX, published 2025)
One block for each binder: values may come before it.

Target: T1, CD123 (Homo sapiens (Human), UniProt P26951 19-305, limits assumed)
T1 construct: The CD123 construct used in the ELISA is not described; also called CD123-Signal
T1 sequence: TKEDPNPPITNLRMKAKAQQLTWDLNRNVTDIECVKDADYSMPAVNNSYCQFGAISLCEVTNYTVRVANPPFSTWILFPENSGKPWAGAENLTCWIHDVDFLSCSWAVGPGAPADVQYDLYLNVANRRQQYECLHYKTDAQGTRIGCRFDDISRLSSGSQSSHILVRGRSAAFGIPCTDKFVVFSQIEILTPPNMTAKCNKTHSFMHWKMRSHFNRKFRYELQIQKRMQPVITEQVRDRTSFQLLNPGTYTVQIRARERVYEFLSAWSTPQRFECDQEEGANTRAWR
Experiment: ELISA
Design: unit not given here

ELISA_avg: 4.5
B1: D domain of SEQ ID NO: 628 (designed binder)
chain: MGSWTEFDERLDAIDWRLEALGGSEAELAWFEGDIALFEQYLQVYKGKGNPEVEALMEEADAIKAELDAYRHN

ELISA_avg: 3.7
B2: D domain of SEQ ID NO: 609 (designed binder)
chain: MGSWMEFEDRLIAIWARLDALGGSEAELAWFEADIADFEESLQEYKGKGNPEVEALIFEAIAINKELMAYRHN

ELISA_avg: 3.6
B3: D domain of SEQ ID NO: 604 (designed binder)
chain: MGSWAEFDSRLDAIAQRLFALGGSEAELAHFEDFIAQFEYSLQEYKGKGNPEVEALSNEADAIFNELKAYRHN

ELISA_avg: 3.6
B4: D domain of SEQ ID NO: 605 (designed binder)
chain: MGSWAEFDSRLIAIFDRLWALGGSEAELAWFEDDIAQFEQHLQAYKGKGNPEVEALRQEADAITFELKAYRHN

ELISA_avg: 4.5
B5: D domain of SEQ ID NO: 599 (designed binder)
chain: MGSWSEFWFRLDAIEDRLWALGGSEAELAEFEDNIALFEYSLQHYKGKGNPEVEALVKEANAIDDELGAYRHN

ELISA_avg: 4.1
B6: D domain of SEQ ID NO: 618 (designed binder)
chain: MGSWYEFEERLDAIEDRLIALGGSEAELAIFEDIIAFFEQDLQYYKGKGNPEVEALEMEAEAISIELDAYRHN

ELISA_avg: 3.4
B7: D domain of SEQ ID NO: 627 (designed binder)
chain: MGSWVEFDSRLAAIDYRLEALGGSEAELAWFEYTIANFEHTLQMYKGKGNPEVEALVYEAHAIATELQAYRHN

ELISA_avg: 3.8
B8: D domain of SEQ ID NO: 614 (designed binder)
chain: MGSWYEFSSRLNAIDDRLWALGGSEAELAYFETDIADFESLLQWYKGKGNPEVEALLNEADAIDYELYAYRHN

ELISA_avg: 3.4
B9: D domain of SEQ ID NO: 608 (designed binder)
chain: MGSWLEFESRLWAIWDRLDALGGSEAELAHFEQDIADFEMSLQEYKGKGNPEVEALIREAEAIETELYAYRHN

ELISA_avg: 5.3
B10: D domain of SEQ ID NO: 603 (designed binder)
chain: MGSWSEFVDRLDAIFDRLWALGGSEAELAWFEDTIAHFEWNLQEYKGKGNPEVEALNGEADAITDELHAYRHN

ELISA_avg: 6.5
B11: D domain of SEQ ID NO: 637 (designed binder)
chain: MGSWIEFMDRLWAIDQRLWALGGSEAELAWFEEEIAWFEEELQVYKGKGNPEVEALEWEATAISEELWAYRHN

ELISA_avg: 3.7
B12: D domain of SEQ ID NO: 622 (designed binder)
chain: MGSWEEFEDRLFAIDSRLWALGGSEAELAEFENIIASFEEVLQEYKGKGNPEVEALSVEAFAIDRELGAYRHN

ELISA_avg: 3.2
B13: D domain of SEQ ID NO: 611 (designed binder)
chain: MGSWYEFVSRLDAIEYRLWALGGSEAELAWFEWDIADFEQGLQFYKGKGNPEVEALAQEANAIGSELTAYRHN

ELISA_avg: 3.2
B14: D domain of SEQ ID NO: 630 (designed binder)
chain: MGSWWEFDSRLDAIDFRLWALGGSEAELAWFEVEIADFEDWLQLYKGKGNPEVEALWHEADAIVTELYAYRHN

ELISA_avg: 8.2
B15: D domain of SEQ ID NO: 623 (designed binder)
chain: MGSWEEFLFRLEAIQDRLWALGGSEAELAWFEYEIASFEDVLQSYKGKGNPEVEALSTEAKAIDYELFAYRHN

ELISA_avg: 5.9
B16: D domain of SEQ ID NO: 606 (designed binder)
chain: MGSWTEFEERLEAIWDRLYALGGSEAELAAFEWDIAYFEDGLQEYKGKGNPEVEALFMEAEAIIRELKAYRHN

ELISA_avg: 9.4
B17: D domain of SEQ ID NO: 633 (designed binder)
chain: MGSWEEFEDRLWAIDGRLYALGGSEAELAWFEQWIATFEEDLQDYKGKGNPEVEALEYEASAIFEELEAYRHN

ELISA_avg: 4.7
B18: D domain of SEQ ID NO: 601 (designed binder)
chain: MGSWYEFDDRLWAIFDRLFALGGSEAELAFFEDSIAEFEEELQHYKGKGNPEVEALYLEAWAIENELGAYRHN

ELISA_avg: 3.3
B19: D domain of SEQ ID NO: 596 (designed binder)
chain: MGSWEEFHWRLGAIDARLEALGGSEAELAWFEDGIADFEAILQDYKGKGNPEVEALDSEAVAIHHELWAYRHN

ELISA_avg: 6.8
B20: D domain of SEQ ID NO: 621 (designed binder)
chain: MGSWMEFEDRLMAIVDRLWALGGSEAELADFEWNIAMFEEELQWYKGKGNPEVEALGDEAEAIEWELYAYRHN

ELISA_avg: 3.1
B21: D domain of SEQ ID NO: 616 (designed binder)
chain: MGSWLEFEYRLDAIYDRLFALGGSEAELAAFEQDIADFEKYLQYYKGKGNPEVEALWEEADAIMWELFAYRHN

ELISA_avg: 9.5
B22: D domain of SEQ ID NO: 620 (designed binder)
chain: MGSWIEFEDRLDAITDRLWALGGSEAELAEFEHQIAFFEEDLQWYKGKGNPEVEALHMEAEAIMEELGAYRHN

ELISA_avg: 4
B23: D domain of SEQ ID NO: 626 (designed binder)
chain: MGSWFEFDARLMAINDRLWALGGSEAELAAFEYHIALFEDQLQMYKGKGNPEVEALTLEAVAINEELWAYRHN

ELISA_avg: 3.3
B24: D domain of SEQ ID NO: 624 (designed binder)
chain: MGSWVEFDNRLFAIDERLWALGGSEAELAWFEEEIASFEDNLQKYKGKGNPEVEALQLEAFAIMEELDAYRHN

ELISA_avg: 5.5
B25: D domain of SEQ ID NO: 632 (designed binder)
chain: MGSWYEFQERLDAIDSRLWALGGSEAELAWFEYTIAEFEKELQMYKGKGNPEVEALGTEAVAISEELMAYRHN

ELISA_avg: 4
B26: D domain of SEQ ID NO: 615 (designed binder)
chain: MGSWFEFEYRLDAIIDRLFALGGSEAELAEFESMIANFEYSLQEYKGKGNPEVEALYFEADAIVDELTAYRHN

ELISA_avg: 3.6
B27: D domain of SEQ ID NO: 619 (designed binder)
chain: MGSWHEFEKRLYAIEDRLIALGGSEAELAWFEDSIAWFEWDLQMYKGKGNPEVEALNEEADAIYQELDAYRHN

ELISA_avg: 3.9
B28: D domain of SEQ ID NO: 635 (designed binder)
chain: MGSWFEFNDRLDAISERLSALGGSEAELAYFEWQIAVFEKTLQNYKGKGNPEVEALTLEANAIFEELEAYRHN

ELISA_avg: 5.8
B29: D domain of SEQ ID NO: 617 (designed binder)
chain: MGSWHEFEERLMAIEDRLWALGGSEAELAEFEQWIALFEYDLQEYKGKGNPEVEALGMEAFAINNELSAYRHN

ELISA_avg: 3
B30: D domain of SEQ ID NO: 631 (designed binder)
chain: MGSWYEFDERLDAIFDRLWALGGSEAELAYFEQVIATFEKTLQRYKGKGNPEVEALDTEAKAISWELDAYRHN

ELISA_avg: 3.2
B31: D domain of SEQ ID NO: 598 (designed binder)
chain: MGSWFEFDQRLDAITFRLWALGGSEAELAEFEDVIALFEYHLQDYKGKGNPEVEALEVEAWAIFHELGAYRHN

ELISA_avg: 3.5
B32: D domain of SEQ ID NO: 613 (designed binder)
chain: MGSWIEFFHRLDAIQDRLDALGGSEAELAYFEWAIADFEHMLQLYKGKGNPEVEALQFEAFAIEGELYAYRHN

ELISA_avg: 5.4
B33: D domain of SEQ ID NO: 638 (designed binder)
chain: MGSWEEFNWRLRAIDERLFALGGSEAELAWFEYDIAEFEEQLQVYKGKGNPEVEALRVEAAAIAEELYAYRHN

ELISA_avg: 3.5
B34: D domain of SEQ ID NO: 610 (designed binder)
chain: MGSWFEFTIRLEAIQDRLDALGGSEAELAWFEWDIAEFEEGLQFYKGKGNPEVEALHTEADAIMNELVAYRHN

ELISA_avg: 4.4
B35: D domain of SEQ ID NO: 600 (designed binder)
chain: MGSWYEFWDRLTAIEHRLWALGGSEAELAYFEDSIAHFEGSLQVYKGKGNPEVEALYKEAEAIEWELEAYRHN

ELISA_avg: 4
B36: D domain of SEQ ID NO: 636 (designed binder)
chain: MGSWVEFMDRLEAIEERLSALGGSEAELAFFEWEIAEFEEHLQVYKGKGNPEVEALEWEALAITEELAAYRHN

ELISA_avg: 3.2
B37: D domain of SEQ ID NO: 602 (designed binder)
chain: MGSWNEFVERLSAIDHRLWALGGSEAELADFEQQIAEFEIHLQEYKGKGNPEVEALDFEADAIFDELLAYRHN

ELISA_avg: 7
B38: D domain of SEQ ID NO: 629 (designed binder)
chain: MGSWIEFDERLDAIDFRLWALGGSEAELAWFEGWIAEFESDLQLYKGKGNPEVEALNEEANAIFHELSAYRHN

ELISA_avg: 3.6
B39: D domain of SEQ ID NO: 597 (designed binder)
chain: MGSWYEFYERLWAIDDRLWALGGSEAELAEFEDSIATFEPSLQMYKGKGNPEVEALVAEAWAIFDELAAYRHN

ELISA_avg: 4.5
B40: D domain of SEQ ID NO: 634 (designed binder)
chain: MGSWFEFGDRLEAIDERLYALGGSEAELAQFEWWIAEFEHHLQDYKGKGNPEVEALEYEADAIWGELHAYRHN

ELISA_avg: 6.4
B41: D domain of SEQ ID NO: 607 (designed binder)
chain: MGSWYEFEDRLAAIWDRLNALGGSEAELAIFEWDIAWFEEGLQEYKGKGNPEVEALKHEASAIQTELFAYRHN

ELISA_avg: 4.1
B42: D domain of SEQ ID NO: 625 (designed binder)
chain: MGSWFEFDDRLEAIFDRLWALGGSEAELAMFEFAIAEFEDALQEYKGKGNPEVEALYEEAVAIDEELYAYRHN

ELISA_avg: 4.4
B43: D domain of SEQ ID NO: 612 (designed binder)
chain: MGSWEEFDYRLYAIQDRLYALGGSEAELAFFEWEIADFEHMLQMYKGKGNPEVEALFQEADAIDAELHAYRHN
